Experimental data: US20230201322A1
Like-named read-outs stand apart in the source and are kept apart here.

How the values were obtained:
[1] = target: HLA-A*0201 molecule expressed on the human tumoral cell T2 (human); assay: T2 cell HLA-A2 FACS (BB7.2-PE), peptide 1 µM
[2] = target: HLA-A*0201 molecule expressed on the human tumoral cell T2 (human); assay: T2 cell HLA-A2 FACS (BB7.2-PE), peptide 1 µM; remark: listed apart in the source
[3] = target: HLA-A*0201 molecule expressed on the human tumoral cell T2 (human); assay: T2 cell HLA-A2 FACS (BB7.2-PE), peptide 1 µM; remark: listed apart in the source
[4] = target: HLA-A*0201 molecule expressed on the human tumoral cell T2 (human); assay: T2 cell HLA-A2 FACS (BB7.2-PE), peptide 10 µM
[5] = target: HLA-A*0201 molecule expressed on the human tumoral cell T2 (human); assay: T2 cell HLA-A2 FACS (BB7.2-PE), peptide 10 µM; remark: listed apart in the source
[6] = target: HLA-A*0201 molecule expressed on the human tumoral cell T2 (human); assay: T2 cell HLA-A2 FACS (BB7.2-PE), peptide 10 µM; remark: listed apart in the source
[7] = target: HLA-A*0201 molecule expressed on the human tumoral cell T2 (human); assay: T2 cell HLA-A2 FACS (BB7.2-PE), peptide 0.1 µM
[8] = target: HLA-A*0201 molecule expressed on the human tumoral cell T2 (human); assay: T2 cell HLA-A2 FACS (BB7.2-PE), peptide 0.1 µM; remark: listed apart in the source
[9] = target: HLA-A*0201 molecule expressed on the human tumoral cell T2 (human); assay: T2 cell HLA-A2 FACS (BB7.2-PE), peptide 0.1 µM; remark: listed apart in the source
[10] = target: HLA-A*0201 molecule expressed on the human tumoral cell T2 (human); assay: T2 cell HLA-A2 FACS (BB7.2-PE), peptide titration
[11] = target: HLA-A*0201 molecule expressed on the human tumoral cell T2 (human); assay: T2 cell HLA-A2 FACS (BB7.2-PE), peptide titration; remark: listed apart in the source
[12] = target: HLA-A*0201 molecule expressed on the human tumoral cell T2 (human); assay: T2 cell HLA-A2 FACS (BB7.2-PE), peptide titration; remark: listed apart in the source

- HLA-A2 labelling as % of reference peptide HIV pol 589-597 at 100 µM [1]: -5.38%
- HLA-A2 labelling as % of reference peptide HIV pol 589-597 at 100 µM [2]: -2.54%
- HLA-A2 labelling as % of reference peptide HIV pol 589-597 at 100 µM [3]: 4.65%
- HLA-A2 labelling as % of reference peptide HIV pol 589-597 at 100 µM [4]: -3.03%
- HLA-A2 labelling as % of reference peptide HIV pol 589-597 at 100 µM [5]: 3.8%
- HLA-A2 labelling as % of reference peptide HIV pol 589-597 at 100 µM [6]: 8.8%
- HLA-A2 labelling as % of reference peptide HIV pol 589-597 at 100 µM [7]: -9.24%
- HLA-A2 labelling as % of reference peptide HIV pol 589-597 at 100 µM [8]: 2.58%
- HLA-A2 labelling as % of reference peptide HIV pol 589-597 at 100 µM [9]: 5.62%
- Conc. inducing 20% of HLA-A2 expression [10]: 36 µM
- Conc. inducing 20% of HLA-A2 expression [11]: 30.9 µM
- Conc. inducing 20% of HLA-A2 expression [12]: 26.5 µM
Substance: reference peptide HIV pol 589-597
